Measured values: patent US20110039779A1 (published 2011)
Several values for one entry are separate records, joined by “and”; a condition that tells them apart may be missing. Equal values may be shown once. One block for each binder: values may come before it. Where no end group is shown, it is not given here. [ ]: non-standard residue; d: D form. pGlu = O=C1CC[C@@H](C(=O)O)N1

Tests used:
[1] = biological target: T1, IGF-1R on MCF-7 cells (MCF-7S8, MCF7) (human, UniProt P08069 31-1367); assay: cell-based or functional assay
T1 sequence (P08069 31-1367): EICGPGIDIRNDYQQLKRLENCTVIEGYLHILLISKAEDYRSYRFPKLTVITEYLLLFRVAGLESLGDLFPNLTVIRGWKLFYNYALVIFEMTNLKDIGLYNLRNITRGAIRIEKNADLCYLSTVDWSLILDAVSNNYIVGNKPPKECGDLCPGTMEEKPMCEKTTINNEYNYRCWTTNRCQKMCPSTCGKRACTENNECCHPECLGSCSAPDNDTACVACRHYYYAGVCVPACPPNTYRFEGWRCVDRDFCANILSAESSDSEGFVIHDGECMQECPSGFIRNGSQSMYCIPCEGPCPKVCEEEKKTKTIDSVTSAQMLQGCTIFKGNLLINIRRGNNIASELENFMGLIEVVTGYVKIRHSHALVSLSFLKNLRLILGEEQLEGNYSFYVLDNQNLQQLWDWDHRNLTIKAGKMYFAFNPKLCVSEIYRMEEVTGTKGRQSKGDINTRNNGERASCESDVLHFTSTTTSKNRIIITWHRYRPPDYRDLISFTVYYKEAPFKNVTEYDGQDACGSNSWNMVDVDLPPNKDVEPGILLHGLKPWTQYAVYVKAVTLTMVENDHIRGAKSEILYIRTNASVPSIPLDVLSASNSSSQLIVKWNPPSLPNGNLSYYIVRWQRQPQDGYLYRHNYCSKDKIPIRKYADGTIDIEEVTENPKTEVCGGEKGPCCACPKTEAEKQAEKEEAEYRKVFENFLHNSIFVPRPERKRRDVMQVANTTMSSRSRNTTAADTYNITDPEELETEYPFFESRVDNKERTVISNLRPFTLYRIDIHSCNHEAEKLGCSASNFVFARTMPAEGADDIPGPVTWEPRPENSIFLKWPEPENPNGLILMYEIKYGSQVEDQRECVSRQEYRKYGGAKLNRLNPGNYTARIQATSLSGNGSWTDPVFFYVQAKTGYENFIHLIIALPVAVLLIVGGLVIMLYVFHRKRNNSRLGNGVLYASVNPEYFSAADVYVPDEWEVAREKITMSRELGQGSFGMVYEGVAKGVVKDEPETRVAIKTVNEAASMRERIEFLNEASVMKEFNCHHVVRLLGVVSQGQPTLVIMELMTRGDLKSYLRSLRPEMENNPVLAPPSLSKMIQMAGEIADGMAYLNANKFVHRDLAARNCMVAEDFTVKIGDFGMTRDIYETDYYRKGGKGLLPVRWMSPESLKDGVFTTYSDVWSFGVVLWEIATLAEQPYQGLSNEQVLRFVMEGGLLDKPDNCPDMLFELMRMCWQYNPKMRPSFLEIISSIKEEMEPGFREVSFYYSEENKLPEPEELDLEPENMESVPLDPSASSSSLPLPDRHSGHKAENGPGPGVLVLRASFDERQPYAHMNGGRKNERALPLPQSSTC

IGF-1R on SW480 cells [2] = biological target: T2, IGF-1R on SW480 cells (UniProt P08069 31-1367, limits assumed); assay: cell-based or functional assay
T2 sequence (P08069 31-1367 limits assumed): as the sequence (P08069 31-1367) above

IGF-1R on SW480 cells [3] = biological target: T2, IGF-1R on SW480 cells; assay: cell-based or functional assay; remark: listed apart in the source
[4] = biological target: Human IGF-1R (HIGF-1R), purified from BHK cells stably transfected with IGF-1R cDNA (human, UniProt P08069 31-1367); assay: cell-based or functional assay
Target sequence in this assay (P08069 31-1367 limits assumed): as the sequence (P08069 31-1367) above

IGF-1R on L6 cells [5] = assay: cell-based or functional assay
[6] = biological target: T3, His-tagged soluble recombinant human IGF-IR (srhIGF-1R-his; R&D systems) (human, UniProt P08069 31-935); assay: AlphaScreen competition with biotinylated hIGF-1 on srhIGF-1R-his
T3 construct: extracellular domain; Bought protein; also called extra-cellular domain of IGF-1R; not shown: His tag
T3 sequence (P08069 31-935): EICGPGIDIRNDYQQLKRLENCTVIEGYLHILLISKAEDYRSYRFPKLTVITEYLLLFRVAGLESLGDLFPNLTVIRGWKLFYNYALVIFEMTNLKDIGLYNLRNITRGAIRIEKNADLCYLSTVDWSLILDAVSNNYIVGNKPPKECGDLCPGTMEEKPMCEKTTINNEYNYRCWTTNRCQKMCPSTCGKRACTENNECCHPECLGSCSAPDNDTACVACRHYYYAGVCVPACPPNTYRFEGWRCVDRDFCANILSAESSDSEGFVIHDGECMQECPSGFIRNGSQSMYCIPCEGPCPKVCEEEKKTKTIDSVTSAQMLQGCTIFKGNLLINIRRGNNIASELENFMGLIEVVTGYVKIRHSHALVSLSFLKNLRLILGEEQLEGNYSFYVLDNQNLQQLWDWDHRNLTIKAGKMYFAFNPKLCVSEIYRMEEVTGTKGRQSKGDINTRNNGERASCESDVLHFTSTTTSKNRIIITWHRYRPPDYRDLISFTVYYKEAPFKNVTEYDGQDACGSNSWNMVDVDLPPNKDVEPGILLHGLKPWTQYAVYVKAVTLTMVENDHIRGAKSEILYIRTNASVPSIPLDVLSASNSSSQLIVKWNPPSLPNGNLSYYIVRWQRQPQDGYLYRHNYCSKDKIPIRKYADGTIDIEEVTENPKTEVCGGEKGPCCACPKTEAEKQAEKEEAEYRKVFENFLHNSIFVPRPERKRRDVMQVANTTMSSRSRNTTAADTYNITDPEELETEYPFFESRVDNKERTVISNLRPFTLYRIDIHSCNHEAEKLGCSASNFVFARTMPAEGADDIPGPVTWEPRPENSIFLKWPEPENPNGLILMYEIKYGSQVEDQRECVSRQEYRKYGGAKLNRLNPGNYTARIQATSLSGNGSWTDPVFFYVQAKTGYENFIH
Experimental: Binding Assays. […] Detection of the receptor ligand interaction was measured in an amplified luminescent proximity homogeneous assay (ALPHAScreen; BioSignal-Packard, Montreal). The assay was performed in 384-well Nunc™ white polystyrene microplates (Nalge Nunc International, Naperville, Ill.) with a final volume of 40 μL. […] Each concentration of competitor was assayed in duplicate. […] The second step of the assay was to add acceptor beads and the incubation continued for 0.5 hr. The final step was to add donor beads and the incubation continued for an additional 1 hr. […] Primary data were background corrected, normalized to buffer controls and then expressed as % Specific Binding. The data were fit to a four-parameter non-linear regression analysis (y=min+(max-min)/(1+10̂((log IC₅₀-x)*Hillslope))), which was used to determine IC₅₀ values. The Z′-factor for this assay is greater than 0.7 (Z′=1-(3σ++3σ−)/|μ+−μ−|) and the signal-to-background (SB) ratio was between 40 and 70.

[7] = biological target: T4, Human IGF-1R (HIGF-1R), purified from BHK cells stably transfected with IGF-1R cDNA (human, UniProt P08069 31-1367); assay: competition with 125I-IGF-1 on purified HIGF-1R (PEG or SPA assay; the sentence does not say which)
T4 construct: mature; Detergent-solubilised whole receptor, not on cells; form 'mature' is my reading of 'purified from ... cells stably transfected with IGF-1R cDNA'; also called human insulin-like growth factor-1 receptor; purified HIGF-1R
T4 sequence (P08069 31-1367 limits assumed): as the sequence (P08069 31-1367) above

[8] = biological target: T1, IGF-1R on MCF-7 cells (MCF-7S8, MCF7); assay: cell-based or functional assay; remark: listed apart in the source
[9] = biological target: IGF-1R on SW480, MCF-7 and MiaPaCa cells (human, UniProt P08069 31-1367); assay: cell-based or functional assay
IGF-1R on SW480, MCF-7 and MiaPaCa cells, sequence (P08069 31-1367): as above

[10] = biological target: T4, Human IGF-1R (HIGF-1R), purified from …; assay: cell-based or functional assay; remark: listed apart in the source
IGF-1R on L6 cells [11] = assay: cell-based or functional assay; remark: listed apart in the source
Target sequence in this assay (P24062 31-737, chain 1 of 2): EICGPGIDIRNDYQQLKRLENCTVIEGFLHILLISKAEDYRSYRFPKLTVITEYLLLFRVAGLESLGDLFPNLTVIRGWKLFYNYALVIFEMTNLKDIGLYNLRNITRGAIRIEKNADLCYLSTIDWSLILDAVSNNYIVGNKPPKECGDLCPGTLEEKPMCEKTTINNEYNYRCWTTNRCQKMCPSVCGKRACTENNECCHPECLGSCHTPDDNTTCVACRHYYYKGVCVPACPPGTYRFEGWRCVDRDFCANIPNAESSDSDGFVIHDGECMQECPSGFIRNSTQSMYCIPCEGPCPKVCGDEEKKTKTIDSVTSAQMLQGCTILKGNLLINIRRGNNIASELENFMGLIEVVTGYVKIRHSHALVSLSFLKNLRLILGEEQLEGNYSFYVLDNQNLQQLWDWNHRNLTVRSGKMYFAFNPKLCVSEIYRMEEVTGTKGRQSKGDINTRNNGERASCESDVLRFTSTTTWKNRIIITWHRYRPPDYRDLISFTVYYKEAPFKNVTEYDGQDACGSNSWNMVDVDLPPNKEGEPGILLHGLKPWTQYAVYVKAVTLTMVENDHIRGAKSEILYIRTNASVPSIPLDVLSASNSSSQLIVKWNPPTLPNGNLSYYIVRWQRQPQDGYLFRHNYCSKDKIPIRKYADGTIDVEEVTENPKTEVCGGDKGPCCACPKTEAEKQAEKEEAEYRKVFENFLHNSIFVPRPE
Target sequence in this assay (P24062 742-1370, chain 2 of 2): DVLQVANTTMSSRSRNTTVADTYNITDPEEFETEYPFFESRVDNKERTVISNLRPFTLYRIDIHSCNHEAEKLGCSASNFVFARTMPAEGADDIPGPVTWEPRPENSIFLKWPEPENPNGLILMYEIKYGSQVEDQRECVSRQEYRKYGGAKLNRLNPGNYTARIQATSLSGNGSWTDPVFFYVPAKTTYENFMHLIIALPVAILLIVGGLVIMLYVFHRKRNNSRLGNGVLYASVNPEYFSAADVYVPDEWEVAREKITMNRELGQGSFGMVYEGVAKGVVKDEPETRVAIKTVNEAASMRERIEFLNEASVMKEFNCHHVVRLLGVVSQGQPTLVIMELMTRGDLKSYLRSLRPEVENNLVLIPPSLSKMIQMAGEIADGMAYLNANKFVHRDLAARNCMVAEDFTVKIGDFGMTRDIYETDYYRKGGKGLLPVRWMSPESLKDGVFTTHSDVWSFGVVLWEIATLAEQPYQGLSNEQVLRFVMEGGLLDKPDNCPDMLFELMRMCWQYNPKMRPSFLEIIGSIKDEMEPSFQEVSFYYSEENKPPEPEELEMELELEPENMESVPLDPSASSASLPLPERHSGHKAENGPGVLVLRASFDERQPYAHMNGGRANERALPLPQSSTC

B1: F170 (peptide)
peptide: EISFRCQLFVLAGMHPCPVDVGGEGFE
IC50 in MCF-7S8, in presence of IGF-1 [1]: 2000 nM

B3: F250 (peptide)
peptide: SFYSCLESLVNGPAEKSRGQWDGCRK
IC50 in MCF-7S8, in presence of IGF-1 [1]: 2000 nM | IC50 in SW480 (M) in presence of IGF-1 (IGF-1R on SW480 cells [3]): 2e-06 M and 1e-06 M

B4: F293 (peptide)
peptide: SFYSCLESLVQGPAEKSRGQWEGCRK
IC50 in kinase assay (M), IGF-1R kinase activation by 10 nM IGF-1 [4]: 1e-07 M | IC50, down regulation of 3 nM IGF-1 stimulation to basal level, IGF-IR, L6 cells (IGF-1R on L6 cells [5]): 500 nM | IC50, down regulation of 3 nM IGF-1 stimulation to basal level, IRS-1, L6 cells (IGF-1R on L6 cells [5]): > 1000 nM | IC50, down regulation of 3 nM IGF-1 stimulation to basal level, MAPK42, L6 cells (IGF-1R on L6 cells [5]): 1000 nM | IC50, down regulation of 3 nM IGF-1 stimulation to basal level, MAPK44, L6 cells (IGF-1R on L6 cells [5]): 500 nM | IC50, down regulation of 3 nM IGF-1 stimulation to basal level, PKB/Akt, L6 cells (IGF-1R on L6 cells [5]): > 1000 nM | IC50 [6]: 9 nM | IC50 in MCF-7S8, in presence of IGF-1 [1]: 10000 nM | IC50 in MCF-7S8, peptide alone [1]: > 10000 nM | IC50 in SW480 (M), peptide alone (IGF-1R on SW480 cells [3]): 1e-07 M

B5: F269 (peptide)
peptide: EVDRDCQARPCGDAANFYDWFGQQGTE
IC50 in kinase assay (M), IGF-1R kinase activation by 10 nM IGF-1 [4]: 8e-07 M | IC50 in SW480 (M) in presence of IGF-1 (IGF-1R on SW480 cells [3]): 5e-07 M | IC50 in SW480 (M), peptide alone (IGF-1R on SW480 cells [3]): > 1e-05 M

B9: F138P (peptide)
peptide: [pGlu]FYGCLLDLSLGVPSFGWRRRCITA
modifications: cysteine pairing not given here
IC50, IGF-1 dependent growth in SW480 [9]: 500 nM

B10: F138 (peptide)
peptide: QFYGCLLDLSLGVPSFGWRRRCITA
IC50, down regulation of 3 nM IGF-1 stimulation to basal level, IRS-1, L6 cells (IGF-1R on L6 cells [5]): 300 nM | IC50, down regulation of 3 nM IGF-1 stimulation to basal level, MAPK42, L6 cells (IGF-1R on L6 cells [5]): 300 nM | IC50, down regulation of 3 nM IGF-1 stimulation to basal level, MAPK44, L6 cells (IGF-1R on L6 cells [5]): 300 nM and 100 nM | IC50, down regulation of 3 nM IGF-1 stimulation to basal level, PKB/Akt, L6 cells (IGF-1R on L6 cells [5]): 300 nM and 100 nM | IC50 in MCF-7S8, in presence of IGF-1 [1]: 500 nM

B12: F213 (peptide)
peptide: EGRVDDAFYEWFERQLGE
IC50 in MCF-7S8, in presence of IGF-1 [1]: 2000 nM | IC50 in SW480 (M) in presence of IGF-1 (IGF-1R on SW480 cells [3]): 2e-06 M

B13: F364 (peptide)
peptide: FVQDDCRGRPCGDADSFYEWFDQQAGYGSSSRRAPQT
Kd [7]: 50 nM

B16: F270 (peptide)
peptide: ESYGDCRDRPCGDAPNFYDWFVQQASE
IC50, IGF-1 dependent growth in SW480 [9]: 2000 nM

B17: F264 (peptide)
peptide: RQWDCRGRPCGDAESFYEWFDQQRS
IC50, IGF-1 dependent growth in SW480 cells [9]: > 1000 nM

B18: F259 (peptide)
peptide: SFYSCLESLVAGPAEKSRGQWEGCRK
IC50, IGF-1R kinase activation by IGF-1 [10]: 200 nM and 300 nM

B21: F207 (peptide)
peptide: EFGRGYGGDGGGYWSGYEWLAE
IC50 in kinase assay (M), IGF-1R kinase activation by 10 nM IGF-1 [4]: 2e-07 M | IC50 in MCF-7S8, in presence of IGF-1 [1]: 2000 nM | IC50 in SW480 (M) in presence of IGF-1 (IGF-1R on SW480 cells [3]): 2e-06 M

The next lines start with the values.

IC50, IGF-1 (10 nM)-induced proliferation of SW480 cells, exp. 13262-014 (IGF-1R on SW480 cells [2]): > 10000 nM | IC50 in MCF-7S8, in presence of IGF-1 [1]: 5000 nM and 2000 nM | IC50 in SW480 (M) in presence of IGF-1 (IGF-1R on SW480 cells [3]): 2e-06 M
B2: F259 (peptide)
peptide: SFYSCLESLVAGPAEKSRGQWEGCRK

Kd [7]: 20 to 50 nM
B6: F230 (peptide)
peptide: ESFYSCLASLVAGTPWPKGGSWERCREE

IC50 in kinase assay (M), IGF-1R kinase activation by 10 nM IGF-1 [4]: 1e-06 M
B7: F167 (peptide)
peptide: EDWLRCLGVILSGGLTELANTGCVQGE

MCF7 IC50 [8]: 240 nM and 180 nM
B8: F441 (peptide)
peptide: SFYDCLLDLSIGGPSSDWRRRCITA

IC50, IGF-1 (10 nM)-induced proliferation of SW480 cells, exp. 13717-019 (IGF-1R on SW480 cells [2]): 500 nM | IC50, IGF-1 (10 nM)-induced proliferation of SW480 cells, exp. 13717-027 (IGF-1R on SW480 cells [2]): 1000 nM | IC50, down regulation of 3 nM IGF-1 stimulation to basal level, IGF-IR, L6 cells (IGF-1R on L6 cells [5]): 50 nM | IC50, down regulation of 3 nM IGF-1 stimulation to basal level, IRS-1, L6 cells (IGF-1R on L6 cells [5]): 40 nM | IC50, down regulation of 3 nM IGF-1 stimulation to basal level, MAPK42, L6 cells (IGF-1R on L6 cells [5]): 300 nM | IC50, down regulation of 3 nM IGF-1 stimulation to basal level, MAPK44, L6 cells (IGF-1R on L6 cells [5]): 100 nM | IC50, down regulation of 3 nM IGF-1 stimulation to basal level, PKB/Akt, L6 cells (IGF-1R on L6 cells [5]): 100 nM
B11: F429 (peptide)
peptide: DFYGCLLDLSLGVPSLGWRRRCITA

IC50, IGF-1 dependent growth of SW480 [9]: 500 nM and 1000 nM
B14: F428 (peptide)
peptide: DFYGCLLDLSLGVPSLGWRRRCIT
notes: also called Peptide 428

IC50, IGF-1 dependent growth in MCF-7 [9]: 500 nM | IC50, IGF-1 dependent growth in SW480 [9]: 150 nM | Kd [7]: 6 to 10 nM
B15: F138 (peptide)
peptide: QFYGCLLDLSLGVPSFGWRRRCITA

IC50, IGF-1 dependent growth in MCF-7 cells [9]: 10000 nM | IC50, growth of L6 cells stimulated by IGF-1 at 3 nM (IGF-1R on L6 cells [11]): > 10000 nM | IC50, phosphorylation of IGF-1R and MAPK42/44 in response to IGF-1 treatment (IGF-1R on L6 cells [11]): 500 nM | Kd [7]: 90 nM
B19: F293 (peptide)
peptide: SFYSCLESLVQGPAEKSRGQWEGCRK

IC50 in MCF-7S8, in presence of IGF-1 [1]: 2000 nM | IC50 in SW480 (M) in presence of IGF-1 (IGF-1R on SW480 cells [3]): 2e-06 M
B20: F169 (peptide)
peptide: EFSGFCMGLERLSQVSLGYCGAGQGGE

Kd [7]: 80 to 300 nM
B22: F215 (peptide)
peptide: ESFYSCLESLVNGPAEKSRGQWDGCRE

IC50 in MCF-7S8, in presence of IGF-1 [1]: 1000 nM | IC50 in SW480 (M) in presence of IGF-1 (IGF-1R on SW480 cells [3]): 1e-07 M | IC50 in SW480 (M), peptide alone (IGF-1R on SW480 cells [3]): 1e-06 M
B23: F292 (peptide)
peptide: SFYSCLESLVTGPAEKSRGQWEGCRK

IC50 [6]: 2700 nM
B24: RP6 (peptide)
peptide: TFYSCLASLLTGTPQPNRGPWERCR

IC50, IGF-1 dependent growth of SW480 [9]: 800 nM
B25: F392 (peptide)
peptide: QFYGCLLDLSLGVPSFGWKKKCITA
